Measurements from patent publication US20060115810A1.

Target: extracellular region of the human tumor antigen c-erbB-2 (human) (UniProt P04626)
Test: method not given

## scFv C6.5
  Kd: 160 pM
